{"source": "paper PMC7338535", "about": "(Scientific Reports, 2020)", "proteins": {"B1": {"name": "DiB3 (natural protein)", "chain": "LESTSLYKKSSSTPPRGVTVVNNFDAKRYLGTWYEIARFDHRFERGLEKVTATYSLRDDGGLNFINKGYNPDRGMWQQSEGKAYFTGAPTRAALKVSFFGPFYGGYNVIALDREYRHALVCGPDRDYLWIQSRTPTISDEVKQEMLAVATREGFDVSKFIWVQQPGS"}}, "molecular_target": "the molecule itself", "assay": "crystal structure; apo DiB3, crystals grown at 21 °C in 0.8 M sodium citrate, 50 mM sodium borate, 0.1 sodium acetate, pH 3.5; one chain in the asymmetric unit, dimer with a crystallographic symmetry mate"}
{"protein": "B1", "values": [{"measurement": "stoichiometry N", "value": 2}]}
